Test results published in publication PMC10156745, “Tuning charge density of chimeric antigen receptor optimizes tonic signaling and CAR-T cell fitness” (Cell Research, 2023).

Biological target: T1, CD19 on Nalm6 cells (Homo sapiens, UniProt P15391)
T1 construct: CD19 (B-lymphocyte antigen CD19) on the surface of Nalm6 cells; this is surmised; source: Nalm6 cells expressing CD19 on the cell surface
Test: flow cytometry on cells; purified antibodies titrated on Nalm6 cells expressing CD19; cell-based FACS assay
Settings: one partner purified

T1 sequence (P15391 20-556): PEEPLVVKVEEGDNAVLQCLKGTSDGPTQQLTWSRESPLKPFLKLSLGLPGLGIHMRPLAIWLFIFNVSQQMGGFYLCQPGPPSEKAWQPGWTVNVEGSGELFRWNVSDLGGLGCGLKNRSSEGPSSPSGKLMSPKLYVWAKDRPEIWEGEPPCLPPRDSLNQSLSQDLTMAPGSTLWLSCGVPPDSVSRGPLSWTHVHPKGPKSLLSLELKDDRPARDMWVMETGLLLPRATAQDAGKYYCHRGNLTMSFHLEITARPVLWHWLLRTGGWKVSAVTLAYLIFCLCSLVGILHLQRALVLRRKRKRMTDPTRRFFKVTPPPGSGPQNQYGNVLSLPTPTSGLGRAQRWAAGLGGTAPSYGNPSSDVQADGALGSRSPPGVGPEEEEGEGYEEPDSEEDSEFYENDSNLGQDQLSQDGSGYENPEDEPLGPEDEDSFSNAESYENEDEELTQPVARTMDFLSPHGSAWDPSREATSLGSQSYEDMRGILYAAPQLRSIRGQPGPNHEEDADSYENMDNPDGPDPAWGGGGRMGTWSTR

EC50: 2.6 nM
B1: CD19^M1 antibody (antibody, V domains shown)
VH: EVKLKESGPGLVAPSQSLSVTCKASGVSLPDYGVSWIRQPPRKGLEWLGVIWGSETTYYNSALKSRLTIIKDNSKSQVFLKMNSLQTDDTAIYYCAKHYYYGGSYAMDYWGQGTSVTVSS
VL: DIKMTQTTSSLSASLGDRVTISCRASQDISKYLNWYQQKPDGTVKLLIYHTSRLHSGVPSRFSGSGSGTDYSLTISNLEQEDIATYFCQQGNTLPYTFGGGTKLEIK
notes: as the VH of m1 (FMC63) with uncharged framework residues mutated to lysines; human IgG1 constant region, fused to the variable region in the pCMV plasmid; as the VL of m1 (FMC63) with uncharged framework residues mutated to lysines; light-chain constant region; IgG1 format; Variant of FMC63 with positively charged patches introduced into the framework regions; also called PCP-modified CD19 …
